The nature of the series: yeast display, Sf9 membrane polyspecificity reagent, FACS + sequencing; frameworks hold sequencing errors. In outline:
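Synthetic nanobody libraries on Saccharomyces cerevisiae BJ5465 were galactose-induced for 36–48 hours, stained 1 hour at 4 °C with 10% biotinylated, detergent-solubilized Sf9 membrane reagent and enriched on streptavidin microbeads. FACS then separated cells into low and high (top ~1%) gates by anti-HA (expression) and streptavidin (reagent binding) fluorescence. Genes were colony-PCR amplified, MiSeq 2 × 250 sequenced and CDR-length filtered. A clone's polyreactivity label is that of its gate of origin.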
For the sequence “QVQLVESGGGLVQAGGSLRLSCAASGGIFSWYAMGWYRQAPGKERELVAAISWSGSRTYYADSVKGRFTISRDNAKNTVYLQMNCLKPEDTAVYYCAADYIFRRYPVGGIYDYDYWGQGTQVTVSS”, the “polyreactivity (PSR sort gate)” value is “high polyreactivity”.

On to “QVQLVESGGGLVQAGGSLRLSCAASGGIFSWYDMGWYREAPGKERELVAAISWSGGSTYYADSVKGRFTISRDNAKHTVYLQMNSLKPEDTAVYYCAAYTADDYDYWGQGTQVTVSS”, for which the “polyreactivity (PSR sort gate)” value is “high polyreactivity”.

As to “QVQLVESGGGLVQAGGSLRLSCAASGGIFSYNAMGWYRQAPGKERELVAAITSSGSTYYADSVKGRFTISRDNAKNTVYLQMNSLKPEDTAVYYCNAVKRNSWIRGYWGQGTQVTVSS”, the “polyreactivity (PSR sort gate)” value is reported as “low polyreactivity”.

“QVQLVESGGGLVQAGGSLRLSCAASGGIFTQYVMGWYRQAPGKERELVAAINWSGGSTTYAYSVKGRFTISRDNAKNTVYLQMNSLKPEVTAVYYCAAYSYREFYYWGQGTQVTVSS”: the “polyreactivity (PSR sort gate)” value is listed as “high polyreactivity”.

Turning to “QVQLVESGGGLVQAGGSLRLSCAASGGIFVANAMGWYRQAPGKERELVAAISRSGGSTYYADSVKGRFTISRDNAKNTVYLQMNSLKPEDTAVYYCAAKSRRQYTVGLTSDYWGQGTQVTVSS”, the “polyreactivity (PSR sort gate)” value is listed as “high polyreactivity”.

Turning to “QVQLVESGGGLVQAGGSLRLSCAASGGIFVDNAMGWYRQAPGKERELVATITSTGSTNYADSVKGRFTISRDNAKNTVYLQMNSLKPEDTAVYYCNADGILQDYDYWGQGTQVTVSS”, the “polyreactivity (PSR sort gate)” value is recorded as “low polyreactivity”.

Regarding “QVQLVESGGGLVQAGGSLRLSCAASGGIFVFYAMGWYRQAPGKERELVAAIRYGGSSTYYADSVKGRFTISRDNAKNTVYLQMNSLKPEDTAVYYCAAEHYSVYDPIGDYWGQGTQVTVSS”, the “polyreactivity (PSR sort gate)” value was “low polyreactivity”.

For “QVQLVESGGGLVQAGGSLRLSCAASGGIFVPNAMGWNRQAPGQEREFVARISFSGVSTYYADSVKGRFTISRDNAKNSVYLQLNSLKPEDTAVYYCACDKRARLGAMGYWGQGTQVTVSS”, the “polyreactivity (PSR sort gate)” value was “low polyreactivity”.

As to “QVQLVESGGGLVQAGGSLRLSCAASGGIFVSYAMGLYRQAPGKERELVARINSVDGTNYADSVKGRFTISRDNAKNTVYLQMNSLKPEDTAVYYCAVRSPVLASDYGYYFLRDYWGQGTQVTVSS”, the “polyreactivity (PSR sort gate)” value is recorded as “low polyreactivity”.

Regarding “QVQLVESGGGLVQAGGSLRLSCAASGGIFVYNMGWYRQAPGKERELVAAISVSGGSTYYADSVKGRFTISRDNAKNTVYLQMNSLKPEDTAVYYCAASRPPYRDDYWGQGSQVTVSS”, the “polyreactivity (PSR sort gate)” value is listed as “high polyreactivity”.

For the sequence “QVQLVESGGGLVQAGGSLRLSCAASGGIFVYYAMGWYRQAPGKERELVAAISSGGTTNYADSVKGRFTISRDNAKNTVYLQMNSLKPEDTAVYYCAIYVSWPLYYYWGQGTQVTVSS”, the “polyreactivity (PSR sort gate)” value is “low polyreactivity”.

As to “QVQLVESGGGLVQAGGSLRLSCAASGGIFWHYTMGWYRQAPGKERELVAAITRRGGSTYYADSVKGRFTISRDNAKNTVYLQMNSLKPEDTSVYYGAAVFEWTSRGSYYRYYYWGQGTQVTVSS”, the “polyreactivity (PSR sort gate)” value is “low polyreactivity”.

In the case of “QVQLVESGGGLVQAGGSLRLSCAASGGIFWRYAMGWYRPAPGKERELVAAISSRGGSTYYADSVKGRFTISRDNAKNTVYLQMNSLKPEDTAVYYCAADRRYAESGYYWGQGTQVTVSS”, the “polyreactivity (PSR sort gate)” value is reported as “high polyreactivity”.

For the sequence “QVQLVESGGGLVQAGGSLRLSCAASGGIFWTYAMGWYRQEPGKERELVAAISYSDGITYYADSGKGRFTISRDNAKNTVYFQMYSLKPEDTAVYYCAADPELAVPMYYWGQGTQVTVSS”, the “polyreactivity (PSR sort gate)” value is “low polyreactivity”.

Take “QVQLVESGGGLVQAGGSLRLSCAASGGIFYDYTMGWYRQAPGKERELVAVISSSGSTYYADSVKGRFTISRDNAKNTVYLLMNSLKPEDTAVYYCNALGWYGDYDYWGQGTQVTVSS”: the “polyreactivity (PSR sort gate)” value was “low polyreactivity”.

Consider “QVQLVESGGGLVQAGGSLRLSCAASGGIFYGYAMGWYRQAPGKERELVASISSDDRTNNADSVKGRFTISRDNAKNTVYLQMNSLKPEDTAVYSCNAELGSDTSNFDYWGQGTQVTVSS”, for which the “polyreactivity (PSR sort gate)” value is recorded as “low polyreactivity”.

For the origin of these results see the nanobody polyreactivity screen of Harvey et al. (2022).
